The target in test [1] is bacteriophage P22 coat protein (CP), assembled as P22 virus-like particle capsid (bacteriophage P22) (UniProt P26747). As to the kind of experiment: SEC-MALS; procapsid (PC) VLPs from co-expression of CP and AdhD-SP in E. coli, purified; also SDS-PAGE and TEM; cargo number calculated from the molar mass of the particles; 50 mM sodium phosphate, 100 mM sodium chloride, pH 7.0.

The target is the same in test [2]. The test is described as follows: SEC-MALS; expanded (EX) VLPs made from PC by 3.5 mM SDS for 5 min at room temperature, then ultracentrifuged twice; also SDS-PAGE and TEM.

UniProt P26747, sequence (P26747 whole entry): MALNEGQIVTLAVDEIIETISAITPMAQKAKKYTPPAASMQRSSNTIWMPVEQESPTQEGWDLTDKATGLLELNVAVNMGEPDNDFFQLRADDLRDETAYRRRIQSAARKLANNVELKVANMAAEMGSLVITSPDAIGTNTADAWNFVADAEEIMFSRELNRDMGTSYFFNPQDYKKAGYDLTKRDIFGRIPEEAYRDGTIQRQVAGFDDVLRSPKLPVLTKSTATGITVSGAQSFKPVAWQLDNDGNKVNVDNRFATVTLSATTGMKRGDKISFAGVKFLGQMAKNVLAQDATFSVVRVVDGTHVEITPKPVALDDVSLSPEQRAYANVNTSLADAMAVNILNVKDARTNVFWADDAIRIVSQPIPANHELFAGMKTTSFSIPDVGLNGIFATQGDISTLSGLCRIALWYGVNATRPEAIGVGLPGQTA

Consider “alcohol dehydrogenase-D (AdhD) fused to P22 scaffolding protein (AdhD-SP) (enzyme)”, for which the stoichiometry N (AdhD per capsid) in test [1] is 204. This substance yielded a stoichiometry N (AdhD-SP per VLP) in test [2] of 174.

The values above are taken from article PMC8131759.
